From publication PMC12867014, “Angiopoietin-like 3 monomers are abundant in human plasma but are unable to inhibit endothelial lipase” (JCI Insight, 2025) come the findings set out here.

For data set [1], the target named is mouse ANGPTL3 S220A-R221A (cleavage-resistant) (mouse). The data set is described as follows: mass photometry; Refeyn TwoMP, ambient temperature, DPBS; ANGPTL3 purified from conditioned media by Strep-TactinXT affinity chromatography.
The target is the same in data set [2]. The data set is described as follows: native gel or EMSA; blue NativePAGE (Bis-Tris 3-12% gels, run at room temperature) of conditioned media, immunoblot with an antibody against ANGPTL3. A general note: In EMSA bound probe runs differently from free probe, usually more slowly.
Data set [3] concerns the target Strep-tagged mouse ANGPTL3 (angiopoietin-like 3), wild-type (mouse). The data set is described as follows: mass photometry; Refeyn TwoMP, ambient temperature, DPBS; ANGPTL3 purified from conditioned media by Strep-TactinXT affinity chromatography.
Data set [4] shares this target. The data set is described as follows: native gel or EMSA; blue NativePAGE (Bis-Tris 3-12% gels, run at room temperature) of conditioned media, immunoblot with an antibody against ANGPTL3.
Data set [5] has as its target endogenous ANGPTL3 secreted from Huh7 cells (human (endogenous in Huh7)). The data set is described as above.
Data set [6] has as its target ANGPTL3 of human serum (human (endogenous in serum)). The data set is described as follows: SEC; Superdex 200 of pooled human serum, alone or spiked with conditioned media of recombinant wild-type or L124A human ANGPTL3 (L124A also run without serum); total ANGPTL3, trimeric ANGPTL3 and ANGPTL3/8 complexes in the fractions measured by dedicated immunoassays. (In general: Size exclusion chromatography separates by hydrodynamic size, large species first.)

Data set [7] can be described thus: Western blot of conditioned media. The following applies: glycan lost; control: wild type. A general note: A western blot detects proteins with antibodies after separation by electrophoresis.
Data set [8] concerns the molecule itself. Put plainly: SEC; Superdex 200 of pooled human serum, alone or spiked with conditioned media of recombinant wild-type or L124A human ANGPTL3 (L124A also run without serum); total ANGPTL3, trimeric ANGPTL3 and ANGPTL3/8 complexes in the fractions measured by dedicated immunoassays.

Usually stoichiometry N stands for the number of molecules, sites or subunits per partner or assembly. “mouse ANGPTL3 S220A-R221A (cleavage-resistant) (natural protein)”: the stoichiometry N in data set [1] and in data set [2] was 3 in each case.

For the molecule “Strep-tagged mouse ANGPTL3 (angiopoietin-like 3), wild-type (natural protein)”, in data set [3], the percent present as homotrimer is 58% and the stoichiometry N was 3. Besides, in data set [4], the stoichiometry N worked out at 3.

In data set [5], “endogenous ANGPTL3 secreted from Huh7 cells (natural protein)” showed a stoichiometry N of 3.

Regarding “ANGPTL3 of human serum (natural protein)”, in data set [6], the stoichiometry N was 3.

B1: ANGPTL3: M116A-S117A (protein)
parent chain: MHTIKLFLFVVPLVIASRVDPDLSSFDSAPSEPKSRFAMLDDVKILANGLLQLGHGLKDFVHKTKGQINDIFQKLNIFDQSFYDLSLRTNEIKEEEKELRRTTSTLQVKNEEVKNMSVELNSKLESLLEEKTALQHKVRALEEQLTNLILSPAGAQEHPEVTSLKSFVEQQDNSIRELLQSVEEQYKQLSQQHMQIKEIEKQLRKTGIQEPSENSLSSKSRAPRTTPPLQLNETENTEQDDLPADCSAVYNRGEHTSGVYTIKPRNSQGFNVYCDTQSGSPWTLIQHRKDGSQDFNETWENYEKGFGRLDGEFWLGLEKIYAIVQQSNYILRLELQDWKDSKHYVEYSFHLGSHETNYTLHVAEIAGNIPGALPEHTDLMFSTWNHRAKGQLYCPESYSGGWWWNDICGENNLNGKYNKPRTKSRPERRRGIYWRPQSRKLYAIKSSKMMLQPTT
Regarding B1, in data set [7], the expression_or_secretion entry is reported as “no change”.

B2: recombinant wild-type human ANGPTL3 (His-tagged) (natural protein, UniProt Q9Y5C1 17-460, looked up)
chain: SRIDQDNSSFDSLSPEPKSRFAMLDDVKILANGLLQLGHGLKDFVHKTKGQINDIFQKLNIFDQSFYDLSLQTSEIKEEEKELRRTTYKLQVKNEEVKNMSLELNSKLESLLEEKILLQQKVKYLEEQLTNLIQNQPETPEHPEVTSLKTFVEKQDNSIKDLLQTVEDQYKQLNQQHSQIKEIENQLRRTSIQEPTEISLSSKPRAPRTTPFLQLNEIRNVKHDGIPAECTTIYNRGEHTSGMYAIRPSNSQVFHVYCDVISGSPWTLIQHRIDGSQNFNETWENYKYGFGRLDGEFWLGLEKIYSIVKQSNYVLRIELEDWKDNKHYIEYSFYLGNHETNYTLHLVAITGNVPNAIPENKDLVFSTWDHKAKGHFNCPEGYSGGWWWHDECGENNLNGKYNKPRAKSKPERRRGLSWKSQNGRLYSIKSTKMLIHPTDSESFE
notes: angiopoietin-like 3 (ANGPTL3), human, secreted into the medium; also called WT human ANGPTL3; wild-type trimeric ANGPTL3; source: HEK293T, transient transfection (Fugene6), conditioned media
For the molecule B2, the “stoichiometry N” value in data set [8] turned out to be 3.
